Data taken from the supplement of paper PMC12042874.
± gives the uncertainty stated by the source.

test: amyloid nucleation score (Sup35N fusion, yeast selection) (log enrichment); library NNK2; higher = more nucleation; inactive = no reads after selection
Outline: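 DiMSum was used to calculate nucleation scores as log enrichment of output over input reads, centred on the mode score of non-aggregating sequences. Sequences with fewer than 100 input reads were not scored. Input and output came from Illumina sequencing of plasmid inserts in psi-negative yeast expressing peptides of 20 random codons fused to Sup35N, induced 24 hours with 100 μM copper sulfate and then grown 7 days at 30°C on medium lacking adenine and uracil.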

**Q.** Which amyloid nucleation score does the source give for SLKPSLLSDKNE here?
**A.** -1.39 ± 0.36

**Q.** Which amyloid nucleation score does the source give for SLKSYVSVQFELASSVWILE here?
**A.** 1.02 ± 0.24

**Q.** With SLLGV as the substance, how does the amyloid nucleation score read?
**A.** -1.3 ± 0.34

**Q.** For SLLGVENNCVISFTTIFVVS, which amyloid nucleation score is on record?
**A.** 5.11 ± 0.088

**Q.** With SLLLKVMSR as the substance, how does the amyloid nucleation score read?
**A.** -0.627 ± 0.79

**Q.** For SLMLGVYHLFTCGTQTRCYS, which amyloid nucleation score is on record?
**A.** -0.71 ± 1

**Q.** With SLMVQWSTILAHIRHFMTA as the substance, how does the amyloid nucleation score read?
**A.** 0.073 ± 0.63

**Q.** Which amyloid nucleation score does the source give for SLQSYGVYR here?
**A.** -0.359 ± 0.76

**Q.** For SLSERLVILMTWCTFVVSAQ, which amyloid nucleation score is on record?
**A.** 1.17 ± 0.29

**Q.** For SLSLSSVERNGAANSAREFG, which amyloid nucleation score is on record?
**A.** 0.647 ± 0.31

**Q.** With SLSRFCMNLCRFSGGIQSVR as the substance, how does the amyloid nucleation score read?
**A.** -1.34 ± 0.42

**Q.** For SLTCIDWSELQYSNKSFGSM, which amyloid nucleation score is on record?
**A.** -0.766 ± 0.79

**Q.** With SLTSGRLYEIIIRIYHASFM as the substance, how does the amyloid nucleation score read?
**A.** -1.46 ± 0.34

**Q.** With SLTVTDIKLGHGRV as the substance, how does the amyloid nucleation score read?
**A.** 6.2 ± 0.04

**Q.** Which amyloid nucleation score does the source give for SLVKVGDKRYMFVSTQGKSL here?
**A.** 0.055 ± 0.42

**Q.** With SLVNATGRWINVVTNFRLNG as the substance, how does the amyloid nucleation score read?
**A.** 7.565 ± 0.049

**Q.** For SLVTSIVQG, which amyloid nucleation score is on record?
**A.** -0.434 ± 0.64

**Q.** Which amyloid nucleation score does the source give for SLVYL here?
**A.** 1.1 ± 0.13

**Q.** For SMCDNQKLATDFVSAPRKYG, which amyloid nucleation score is on record?
**A.** -0.73 ± 0.79

**Q.** Which amyloid nucleation score does the source give for SMCWNL here?
**A.** 0.17 ± 0.39

**Q.** Which amyloid nucleation score does the source give for SMDFNNDC here?
**A.** inactive

**Q.** For SMGFSRHRFKG, which amyloid nucleation score is on record?
**A.** 0.164 ± 0.8

**Q.** For SMGLDFPWMSRDTGNFGTEI, which amyloid nucleation score is on record?
**A.** -0.337 ± 0.4

**Q.** Which amyloid nucleation score does the source give for SMGVGTAVTCRTLVVLDGSC here?
**A.** 0.741 ± 0.37

**Q.** For SMHEISVLLVDPVTLQYLG, which amyloid nucleation score is on record?
**A.** 0.114 ± 0.63

**Q.** Which amyloid nucleation score does the source give for SMIIARILHITCFYRAHRRV here?
**A.** -0.721 ± 0.64

**Q.** Which amyloid nucleation score does the source give for SMIYIGIFS here?
**A.** 5.281 ± 0.031

**Q.** Which amyloid nucleation score does the source give for SMLDILS here?
**A.** -1.79 ± 0.62

**Q.** For SMLFRIRSLNVCSFAGLMRQ, which amyloid nucleation score is on record?
**A.** 2.37 ± 0.1

**Q.** Which amyloid nucleation score does the source give for SMSPGVFLISGWPMVENVVF here?
**A.** inactive

**Q.** Which amyloid nucleation score does the source give for SMVTFDYV here?
**A.** inactive

**Q.** With SMYCTPFILCYNPHSNRVAH as the substance, how does the amyloid nucleation score read?
**A.** 9.811 ± 0.037

**Q.** For SMYLKKGRSVRGGMG, which amyloid nucleation score is on record?
**A.** -0.66 ± 0.44

**Q.** For SNALQDGRVQLGSFEHRIVR, which amyloid nucleation score is on record?
**A.** 0.649 ± 0.5

**Q.** With SNCGVLD as the substance, how does the amyloid nucleation score read?
**A.** inactive

**Q.** With SNCRTSFIQMVVYDCFGSFF as the substance, how does the amyloid nucleation score read?
**A.** 4.74 ± 0.09

**Q.** For SNCVCSRIVCCVRMGTGL, which amyloid nucleation score is on record?
**A.** 9.908 ± 0.042

**Q.** With SNGLMSACRWYLPAFLED as the substance, how does the amyloid nucleation score read?
**A.** inactive

**Q.** With SNGYGRLAQLVGGWRDTKGG as the substance, how does the amyloid nucleation score read?
**A.** 0.398 ± 0.29

**Q.** With SNIVSWVIEDGVRKC as the substance, how does the amyloid nucleation score read?
**A.** 4.5 ± 0.049

**Q.** With SNLEFNLE as the substance, how does the amyloid nucleation score read?
**A.** -0.747 ± 0.37

**Q.** For SNLFCLNTSLVQAVMMACPI, which amyloid nucleation score is on record?
**A.** 0.113 ± 1.1

**Q.** Which amyloid nucleation score does the source give for SNNNAIVNRSRIIRHFMNYC here?
**A.** -0.604 ± 0.56

**Q.** Which amyloid nucleation score does the source give for SNQCTWNDYSG here?
**A.** -0.565 ± 0.64

**Q.** With SNQMWLMVCRVE as the substance, how does the amyloid nucleation score read?
**A.** 0.112 ± 0.19

**Q.** Which amyloid nucleation score does the source give for SNRWPGTFLASETNVLLE here?
**A.** -0.224 ± 0.32

**Q.** For SNSGMTVKCNYVYSFVTGKS, which amyloid nucleation score is on record?
**A.** 0.816 ± 0.21

**Q.** For SNSMLASIVNHPSVSVMFFV, which amyloid nucleation score is on record?
**A.** 6.035 ± 0.047

**Q.** For SNVQGLACETTGMARGMWSE, which amyloid nucleation score is on record?
**A.** 0.597 ± 0.17

**Q.** For SNYVY, which amyloid nucleation score is on record?
**A.** -0.161 ± 1.1

**Q.** With SPHNTARLESAEDQSSMCEP as the substance, how does the amyloid nucleation score read?
**A.** 1.55 ± 0.23

**Q.** For SPKMF, which amyloid nucleation score is on record?
**A.** -0.564 ± 0.46

**Q.** For SPQRFDLGYGVYVCDTPK, which amyloid nucleation score is on record?
**A.** -0.231 ± 0.38

**Q.** For SPSEYLLVAYMSHLTENETV, which amyloid nucleation score is on record?
**A.** -0.064 ± 0.45

**Q.** With SPSHGVRNP as the substance, how does the amyloid nucleation score read?
**A.** 1.51 ± 0.34

**Q.** Which amyloid nucleation score does the source give for SPTRFFQLFQADGNSNRGDV here?
**A.** -0.519 ± 1

**Q.** With SPVLIAYQGMAKDWGLVING as the substance, how does the amyloid nucleation score read?
**A.** 0.139 ± 0.56

**Q.** Which amyloid nucleation score does the source give for SQFSPNDLLLGSWKSDCPWR here?
**A.** -0.917 ± 0.54

**Q.** With SQITYVFYFRRGFIMLMWWE as the substance, how does the amyloid nucleation score read?
**A.** -0.323 ± 0.79

**Q.** With SQLFTVLSKS as the substance, how does the amyloid nucleation score read?
**A.** -0.062 ± 0.35

**Q.** For SQWDKTVT, which amyloid nucleation score is on record?
**A.** -0.986 ± 0.55

**Q.** For SRCGIWPWLRHDKVD, which amyloid nucleation score is on record?
**A.** 0.853 ± 0.18

**Q.** Which amyloid nucleation score does the source give for SRCMILFFRFIVSRYEVKSL here?
**A.** 1.77 ± 0.12

**Q.** For SREIWRLYDI, which amyloid nucleation score is on record?
**A.** -0.124 ± 0.8

**Q.** With SREYLSRFVTFYLMYFYAKS as the substance, how does the amyloid nucleation score read?
**A.** -0.516 ± 0.64

**Q.** For SRHGMSLASR, which amyloid nucleation score is on record?
**A.** -0.024 ± 0.46

**Q.** Which amyloid nucleation score does the source give for SRHYYRFHTFAVVGWLSLYW here?
**A.** -0.849 ± 1.1

**Q.** With SRKGVTLLVLNNSLTHRSCN as the substance, how does the amyloid nucleation score read?
**A.** 3.72 ± 0.049

**Q.** For SRKKVMHYDFLVSGVVTHRW, which amyloid nucleation score is on record?
**A.** inactive

**Q.** With SRLSLIFDSIYLCS as the substance, how does the amyloid nucleation score read?
**A.** 2.97 ± 0.15

**Q.** With SRLVFS as the substance, how does the amyloid nucleation score read?
**A.** inactive

**Q.** Which amyloid nucleation score does the source give for SRMVDR here?
**A.** 0.345 ± 0.45

**Q.** For SRNNCRCD, which amyloid nucleation score is on record?
**A.** -1.17 ± 1.1

**Q.** Which amyloid nucleation score does the source give for SRPWNYCRDLWTSVHTGLLS here?
**A.** 0.547 ± 0.36

**Q.** Which amyloid nucleation score does the source give for SRQVTSCVVRRSQCIWSG here?
**A.** 1.2 ± 0.27

**Q.** With SRRFFVCL as the substance, how does the amyloid nucleation score read?
**A.** inactive

**Q.** For SRSFASPRYELMLATRTHEK, which amyloid nucleation score is on record?
**A.** 0.966 ± 0.57

**Q.** Which amyloid nucleation score does the source give for SRSGCHYCAVYTQIVLPRAP here?
**A.** 8.711 ± 0.081

**Q.** For SRSLWYVLNYYV, which amyloid nucleation score is on record?
**A.** 0.062 ± 0.29

**Q.** Which amyloid nucleation score does the source give for SRSQPVICWNTWFVTWYESS here?
**A.** 8.914 ± 0.075

**Q.** For SRSSGTDFMYFDRFLPTRWA, which amyloid nucleation score is on record?
**A.** -0.805 ± 1.1

**Q.** For SRSVNCAVFNADSLCPKLWL, which amyloid nucleation score is on record?
**A.** 4.81 ± 0.11

**Q.** Which amyloid nucleation score does the source give for SRWIGSECNPNCNLSVSYIL here?
**A.** 4.87 ± 0.057

**Q.** For SSCISHGGRK, which amyloid nucleation score is on record?
**A.** -0.546 ± 0.45

**Q.** With SSCIWLVFKCSWFGF as the substance, how does the amyloid nucleation score read?
**A.** 4.421 ± 0.029

**Q.** Which amyloid nucleation score does the source give for SSCKARMVFMLGRYGSGRNL here?
**A.** 0.112 ± 0.79
